{
  "source": "patent US20080299666A1",
  "about": "“Novel Peptide-Based Borono-Lectin (PBL) Sensors” (University of South Carolina, priority 2007, published 2008)",
  "molecules": {"B1": {"name": "FITC-CEA: Carcinoembryonic antigen labeled with FITC (conjugate, UniProt P06731 35-685, looked up)", "Cell adhesion molecule CEACAM5": "KLTIESTPFNVAEGKEVLLLVHNLPQHLFGYSWYKGERVDGNRQIIGYVIGTQQATPGPAYSGREIIYPNASLLIQNIIQNDTGFYTLHVIKSDLVNEEATGQFRVYPELPKPSISSNNSKPVEDKDAVAFTCEPETQDATYLWWVNNQSLPVSPRLQLSNGNRTLTLFNVTRNDTASYKCETQNPVSARRSDSVILNVLYGPDAPTISPLNTSYRSGENLNLSCHAASNPPAQYSWFVNGTFQQSTQELFIPNITVNNSGSYTCQAHNSDTGLNRTTVTTITVYAEPPKPFITSNNSNPVEDEDAVALTCEPEIQNTTYLWWVNNQSLPVSPRLQLSNDNRTLTLLSVTRNDVGPYECGIQNELSVDHSDPVILNVLYGPDDPTISPSYTYYRPGVNLSLSCHAASNPPAQYSWLIDGNIQQHTQELFISNITEKNSGLYTCQANNSASGHSRTTVKTITVSAELPKPSISSNNSKPVEDKDAVAFTCEPEAQNTTYLWWVNGQSLPVSPRLQLSNGNRTLTLFNVTRNDARAYVCGIQNSVSANRSDPVTLDVLYGPDTPIISPPDSSYLSGANLNLSCHSASNPSPQYSWRINGIPQQHTQVLFIAKITPNNNGTYACFVSNLATGRNNSIVKSITVSASGTSPGLSA", "modifications": "FITC label"}, "B2": {"name": "FITC-Oval: conjugate of fluorescein isothiocyanate and chicken ovalbumin (conjugate, UniProt P01012 2-386, looked up)", "Ovalbumin": "GSIGAASMEFCFDVFKELKVHHANENIFYCPIAIMSALAMVYLGAKDSTRTQINKVVRFDKLPGFGDSIEAQCGTSVNVHSSLRDILNQITKPNDVYSFSLASRLYAEERYPILPEYLQCVKELYRGGLEPINFQTAADQARELINSWVESQTNGIIRNVLQPSSVDSQTAMVLVNAIVFKGLWEKAFKDEDTQAMPFRVTEQESKPVQMMYQIGLFRVASMASEKMKILELPFASGTMSMLVLLPDEVSGLEQLESIINFEKLTEWTSSNVMEERKIKVYLPRMKMEEKYNLTSVLMAMGITDVFSSSANLSGISSAESLKISQAVHAAHAEINEAGREVVGSAEAGVDAASVSEEFRADHPFLFCIKHIATNAVLFFGRCVSP", "modifications": "FITC label", "notes": "conjugate of fluorescein isothiocyanate and chicken ovalbumin"}, "B3": {"name": "CR-Oval: ovalbumin labeled with carboxyrhodamine (conjugate, UniProt P01012 2-386, looked up)", "Ovalbumin": "B2 Ovalbumin", "modifications": "carboxyrhodamine label", "notes": "ovalbumin labeled with carboxyrhodamine"}},
  "key": {"[1]": {"conditions": "binding with fructose at pH=8; 480 nm to 450 nm; cited from earlier work"}, "[2]": {"assay": "Non-specific binding and BSA blocking: FITC-BSA and FITC-Ovalbumin on PBL library, bead fluorescence", "conditions": "for Mean of luminosity of fluorescent beads: exposure time 832 ms; for Binding to PBL library by bead fluorescence (non-specific vs specific): exposure time 62.4 ms", "source_text": "On the other hand, we used the PBL library to bind FITC labeled bovine serum album (BSA) to observe non-specific binding. There should not be binding between them because there are no carbohydrates on BSA. The experimental results were compared in FIG. 2.14. […] That means the amount of non-specific binding is less than specific binding. In order to see whether the blocking PBL library with BSA is useful to prevent the non-specific binding, we compared the binding samples with and without blocking with BSA. Two fluorescently labeled proteins were used: FITC-BSA and FITC-Ovalbumin. In FIG. 2.14, it is not easy to differentiate the images 2 and 3 under 62.4 ms exposure time. We increased the exposure time to 832 ms and compared quantitatively the luminosity of fluorescent beads (with red circles). The mean of luminosity for image 2 is 63.57 and 38.84 for image 3; while for image 4 and 5, they are 38.63 and 19.86 respectively. […] In one experiment (Table 2.2, row 1 and 4), we counted the rate of hits which decreased when the PBLs were blocked with BSA."}, "[3]": {"assay": "Binding of control proteins to the PBL library", "conditions": "fluorescently labeled protein", "description": "To minimize non-specific binding, the resin was pre-incubated with 1% BSA. When binding glycoproteins to the library (about 10 min. to 12 hr—about 1 ng/mL to 1 mg/mL), 1% BSA and 10% glycerol were also included. The resin was washed extensively with phosphate buffered saline (PBS) after binding."}, "[4]": {"assay": "PBL library response to FITC-tagged CEA at varying concentrations", "assay_type": "binding", "source_text": "Higher sensitivity is achieved using longer integration times on the camera to image the beads, up to 25 ms to obtain the 10 pg/mL image."}, "[5]": {"assay": "Detection limit of fluorescently-labeled glycoproteins bound to PBL library beads (fluorescence microscopy)", "assay_type": "binding", "description": "To determine how low the concentration is at which we can still differentiate the fluorescence of the beads, the PBL library beads were blocked with 1% BSA and then incubated with varying concentration of FITC-labeled ovalbumin, PSM and CEA and CR-labeled ovalbumin and PSM with the addition of 10% (v/v) glycerol overnight. After washing away unbound glycoproteins, fluorescence images were obtained. The PBL library without addition of glycoprotein was used as a control sample. Here, the limit of glycoprotein detection is defined as the lowest concentration of fluorescently-labeled glycoproteins at which their binding to PBL library beads can give enough fluorescence intensity for visual observation. However, the concentration limits are also exposure time dependent, e.g., for FITC-Ovalbumin, and FITC-BSM, the lowest concentrations for visual observation of fluorescence under exposure time 252 ms are about 10 μg/ml, but if the exposure time was increased, the fluorescence can be observed even under dilute concentration. For instance, for FITC-Ovalbumin, the detection limit will lower to about 0.1 μg/ml when exposure time is increased to 4.69 s (FIGS. 2.15, 2.16 and Table 2.3). For FITC-CEA, if observed under 252 ms, the fluorescence of beads is strong. Its concentration limit is about 0.1 (μg/ml) under this exposure time (FIG. 2.17). Stronger fluorescence from FITC-CEA if under the same exposure time as others may be due to CEA having more terminal glycans compared to others.\nFor CR-glycoproteins, since the PBL library itself is lightly fluorescent under excitation wavelength=510-560 nm, in order to avoid high background interference, we chose comparatively lower exposure time (62.4 ms) when we took the images (FIGS. 2.18 and 2.19). Under this exposure time, the concentration limits for CR-Ovalbumin and CR-PSM were 1 μg/ml (Table 2.3). If we mention the concentration limit of screening, we mention exposure time because the concentration limit is exposure dependent.\nFITC-glycoprotein or CR-glycoprotein solution was added into the borono-peptide beads and tumbled overnight at room temperature. The beads were then washed by PBS buffer (0.1M, pH=7.3 150 mM NaCl) (for CR-glycoproteins, beads were washed with methanol first and then washed with PBS buffer) and beads were observed under fluorescence microscope (Nikon, eclipse, E600) and pictures were taken."}, "[6]": {"conditions": "PBL library blocked with BSA (images 3 and 5)"}, "[7]": {"conditions": "without BSA blocking (images 2 and 4)"}},
  "data": [
    {"molecule": "CN(C)c1ccc(/C=C/c2ccc(B(O)O)cc2)cc1", "note": "[DSTBA, 4′-Dimethylaminostilbene-4-boronic acid]", "values": [
      {"measurement": "Blue shift of the emission", "setting": "[1]", "value": 30, "unit": "nm"}
    ]},
    {"molecule": "FITC-BSA: FITC labeled bovine serum albumin, not a glycoprotein [reference compound]", "values": [
      {"measurement": "Mean of luminosity of fluorescent beads", "setting": "[2]; [6]", "value": 38.84},
      {"measurement": "Binding to PBL library by bead fluorescence (non-specific vs specific)", "setting": "[2]", "value": "non-specific binding is minimal"},
      {"measurement": "Mean of luminosity of fluorescent beads", "setting": "[2]; [7]", "value": 63.57},
      {"measurement": "Binding to the PBL library (qualitative)", "setting": "[3]", "value": "no appreciable binding"}
    ]},
    {"molecule": "B1", "values": [
      {"measurement": "PBL library response (microscope image)", "setting": "[4]; 10 pg/mL CEA, integration times up to 25 ms", "value": "responding"},
      {"measurement": "PBL library response (microscope image)", "setting": "[4]; 10 ng/mL CEA", "value": "responding"}
    ]},
    {"molecule": "B2", "values": [
      {"measurement": "Mean of luminosity of fluorescent beads", "setting": "[2]; [6]", "value": 19.86},
      {"measurement": "Binding to PBL library by bead fluorescence (non-specific vs specific)", "setting": "[2]", "value": "fluorescence can be observed clearly"},
      {"measurement": "Mean of luminosity of fluorescent beads", "setting": "[2]; [7]", "value": 38.63},
      {"measurement": "Concentration limit (detection limit)", "setting": "[5]; FITC label, exposure time 4.69 s", "value": "about 0.1 μg/ml"},
      {"measurement": "Concentration limit (detection limit)", "setting": "[5]; FITC label, exposure time 252 ms, beads blocked with 1% BSA, 10% (v/v) glycerol, overnight", "value": 10, "unit": "µg/mL"},
      {"measurement": "Concentration limit (detection limit)", "setting": "[5]; FITC label, exposure time 252 ms, beads blocked with 1% BSA, 10% (v/v) glycerol, overnight, listed as FITC-Ovalbumin", "value": "about 10 μg/ml"}
    ]},
    {"molecule": "B3", "values": [
      {"measurement": "Concentration limit (detection limit)", "setting": "[5]; CR label, exposure time 62.4 ms, beads blocked with 1% BSA, 10% (v/v) glycerol, overnight", "value": 1, "unit": "µg/mL"}
    ]}
  ]
}
